What is called Km is the concentration of substrate that gives half-maximal velocity.

Substrate in the data set: O=CO
Nature of the data set: purified protein. The following applies: 1 mM benzyl viologen, pH 7.5, 25 °C, anaerobic, buffer 50 mM phosphate or 25 mM MES/TAPS/HEPES/K acetate (Figure 3 legend).

B1: EcFDH-H (FDH) (Escherichia coli K-12) (protein)
chain: MKKVVTVCPYCASGCKINLVVDNGKIVRAEAAQGKTNQGTLCLKGYYGWDFINDTQILTPRLKTPMIRRQRGGKLEPVSWDEALNYVAERLSAIKEKYGPDAIQTTGSSRGTGNETNYVMQKFARAVIGTNNVDCCARVUHGPSVAGLHQSVGNGAMSNAINEIDNTDLVFVFGYNPADSHPIVANHVINAKRNGAKIIVCDPRKIETARIADMHIALKNGSNIALLNAMGHVIIEENLYDKAFVASRTEGFEEYRKIVEGYTPESVEDITGVSASEIRQAARMYAQAKSAAILWGMGVTQFYQGVETVRSLTSLAMLTGNLGKPHAGVNPVRGQNNVQGACDMGALPDTYPGYQYVKDPANREKFAKAWGVESLPAHTGYRISELPHRAAHGEVRAAYIMGEDPLQTDAELSAVRKAFEDLELVIVQDIFMTKTASAADVILPSTSWGEHEGVFTAADRGFQRFFKAVEPKWDLKTDWQIISEIATRMGYPMHYNNTQEIWDELRHLCPDFYGATYEKMGELGFIQWPCRDTSDADQGTSYLFKEKFDTPNGLAQFFTCDWVAPIDKLTDEYPMVLSTVREVGHYSCRSMTGNCAALAALADEPGYAQINTEDAKRLGIEDEALVWVHSRKGKIITRAQVSDRPNKGAIYMTYQWWIGACNELVTENLSPITKTPEYKYCAVRVEPIADQRAAEQYVIDEYNKLKTRLREAALA
Consider B1, for which the Km reads like this: (labelled compound) 158 ± 8 µM; (two highest formate points neglected in fit) 58 ± 8 µM.

For the origin of these results see publication PMC7366381.
